# Results from the DeepSol protein solubility set.
# Experiment: soluble on expression in E. coli; label from the status in PepcDB or PDB records
row,Sequence,soluble on expression in E. coli
1,ASNIHRIQQIVEAAERYNRKVAVSGRSMENIVAVAIELGYLKVKEGVLIGIDAINRYADNKIVIITTGSQGEPMSALTRMAAQEHKKVKIQEGDMVVISANPIPGNEKLVSRVINQLFKKGAEVIYEALADVHVSGHACQEELKLMHTLIKPRFFIPVHGEYRHLKQHKELATNLGMPKANVVIPEIGGVIELTRSSIKKTDTVVAGKVFVDGLGVGDVGNIVLRDRKHLSQDGIVTVVVTIEKVSGTVIAGPDIISRGFVYVRESEDLMEESKEIVKTALLECEEKHITEWATIKSNIKDVLRIFLYERTKRKPMILPIIME,not soluble
2,AEEGAVAVCVRVRPLNSREESLGETAQVYWKTDNNVIYQVDGSKSFNFDRVFHGNETTKNVYEEIAAPIIDSAIQGYNGTIFAYGQTASGKTYTMMGSEDHLGVIPRAIHDIFQKIKKFPDREFLLRVSYMEIYNETITDLLCGTQKMKPLIIREDVNRNVYVADLTEEVVYTSEMALKWITKGEKSRHYGETKMNQRSSRSHTIFRMILESREKGEPSNCEGSVKVSHLNLVDLAGSERAAQTGAAGVRLKEGCNINRSLFILGQVIKKLSDGQVGGFINYRDSKLTRILQNSLGGNPKTRIICTITPVSFDETLTALQFASTAKYMKNTPYVNEVSTDEALEHHHHHH,soluble
3,MAMNYLEAFPKELREYYKNLFGKEEANKIMKKLREPVEHYYIRVNTLKISREKLIGELKKEGLKPLRSPYLPEGLYFVREGPNFSDDFEPKLPVVVANKYAAESVYQGAMLYAPGVLKADKNIKEGDEVQIRDPKGLLVGIGIARMDYKEMTEATRGLAVEVTLPKFKLPSLSELKAFEKGYFYPQGLPSMVTARVLEPKEDDVIIDMAAAPGGKTTHIAQLLENKGEIIAIDKSKNRLRKMEENIKRLGVKNVKLVQMDARKLPDLGIKADKILLDAPCTALGVRPKLWEERTLKHIEATARYQRAFIWAAIKSLRRGGVLVYSTCTLSYEENEGNVKFMIRKGMKLEEQSIFIGSPGIGMNKVQRFYPHKHLTQGFFIAKLRKVKDI,soluble
4,MNVIALMAGDSNDFKEKGYTYPKYFLELDNKPLVQNIVESLKKIDCKITFIIRKEDNDQFFLGSSLKILAPFADVVCISGSTKGAVCTTLFAIDSINNEDEVLLINGDQLVKYDINDIIADFRERNLDGGIVTFESVHPRWSYVCLDEQGLVVQTSEKRPISNVATAGIYYYKRGLDLVESCFSVLKKDVQLNGSYYISSTFNELILRQKKVGVYKIDKKEYISFATTQMYENYINKKLEHHHHHH,soluble
5,VKSLFLLVLGNTEISTIPGISVAGATPELTKITPVADAEYLFYEKPLTIDTIPVTPEGHPTPAIITKAARELSNFPILVVRGGTYLAPLIPHVHISNVVGRDFRREPALPEVEVIIERAKLLGKELEKIANEIVIGESTPGGTTTAQAILWALGYEAKTSSASPENPQELKEKVIKEGFKRVGIEKGGLKDKPLEALKEFGDPMIATVLGLSLGFGGDVVLAGGTQMLAVSALLKSLGEDLSRFMIATTRWVVEDPSATFIETAREIGIISYVAELDFSKSKFKGLRDYERGYVKEGVGAGGATWLAV,not soluble
6,MDHSPWQRCLSVLQEELPAQQFSMWIRPLQCVINDNVMTLYAPNRFVLDWVRDKYVNRINELLTINESNNPLLLRFDVGSKPTIDNSVTNSPVSRNTGGNESLFAKATSAPKVAEPESNIPKKTNVRLNYTFENFVEGKSNQLARAAASQVADNPGTAYNPLFIYGGTGLGKTHLLHAVGNGILLNKPNAKIAYMHSERFVQDMVRALQNNAMEKFKQYYRSVDALLIDDIQFFAGKERTQEEFFHTFNALLEGNQQVILTSDRYPKEINGVDDRLKSRFGWGLTLAIEPPELETRVAILKRKAQESQINLADEVAFFIAKRLRSNVRELEGALNRVIANANFTGRAITIDFVREALRDLLALQDKLVTIDNIQRTVAEYYKIKIADLLSKRRNRSVARPRQIAMALSKELTNHSLPEIGDAFGGRDHTTVLHACRKVKSLREETHDIKEDYSNLIRTLSSLEHHHHHH,not soluble
7,MTDNQSKSLELILTDSDDAHMLLGTHDKHIKFLEENTHVTINSRGEVIQLIGESSEVELVASVLRALQTLIQRGIKVHTPDVVSALKMAKAGNLEAFIAMYEEEIMKDHHGRAIRIKNVGQKKYIDAVKTHDVIFGVGPAGTGKTFLAVVMAVAALKKGEVQKIILTRPAVEAGESLGFLPGDLKEKVDPYLRPVYDALYQIFGMDHTNRLMERGVIEIAPLAYMRGRTLDDAFVILDEAQNTTVAQMKMFLTRLGFSSKMIVNGDTSQIDLPRGVTSGLVNAERTLKDIEKIAFVNFEASDVVRHPVVAQIIQAYEKEQQKHS,not soluble
